Laboratory results as given in PMC11849073, “Specific recognition mechanism of an antibody to sulfated tyrosine and its potential use in biological research” (The Journal of Biological Chemistry, 2025).
Values joined by “and” are separate entries in the source; they are usually repeats but may differ in a detail not shown here. Equal values may be shown once. “Also recorded” adds a separate entry of the source.

What was measured:
[1] = test system: sulfated N-terminal peptide of CCR5; test: ITC analysis of BA8 Fab (wild type and mutants) with the sulfated peptide; assay type: binding; conditions: 10 μM Fab in cell, 100 μM sulfated peptide in syringe, PBS, 25 °C
Source text: To determine the thermodynamic parameters accompanying the interaction, we performed an ITC analysis (Fig. 2B, Table 2).
To further dissect how molecular recognition occurs, we evaluated the contribution of individual residues of BA8 to the recognition of the sulfated peptide. We analyzed the crystal structure using the PDB PISA server, and we conducted mutation analyses in which the residues predicted to form hydrogen bonds or located at the interface were mutated to alanine (Fig. 3B).
The ITC experiments were performed using a MicroCal PEAQ-ITC (Malvern Panalytical, Malvern, UK). The BA8 Fab fragment antibody, sufficiently dialyzed in PBS, was adjusted to 10 μM for the cells, and the CCR5 N-terminal peptide, dissolved in the dialysate, was adjusted to 100 μM for the syringe. The first injection of 0.5 μl (omitted from the analysis) was followed by 19 injections of 2 μl with 120 s intervals at a constant temperature of 25 °C. The titration syringe was continuously stirred at 750 rpm.
The baselines were smoothly adjusted for the step after each titration saturated and fitted as one set of sites binding in MicroCal PEAQ-ITC Analysis Software (Malvern Panalytical, Malvern, UK).

[2] = test system: sulfated CCR5 on HEK293 cells transfected with CCR5 + TPST1 + TPST2 (C12); test: Flow cytometry binding to C12 cells; assay type: cell-based; conditions: BA8 full-length IgG, median fluorescence intensity vs concentration, sigmoid fit, read-out: half-maximal binding concentration (BC50)
Source text: (§1) We prepared model cells with transient overexpression to examine whether BA8 can recognize sulfated full-length CCR5. As referred in the Introduction section, previous research has shown that protein tyrosine sulfotransferases (TPSTs) are responsible for tyrosine sulfation ([10], [11], [12]). Those two isoforms of TPST (TPST1 and TPST2) and CCR5 genes were transiently transfected in the following five combinations to HEK293 cells: Negative Control (NC); CCR5 (C); CCR5 + TPST1 (C1); CCR5 + TPST2 (C2); and CCR5 + TPST1 + TPST2 (C12). Each protein contained the following tag sequences at the C-terminus: CCR5 – FLAG, TPST1 – HA, and TPST2 – Myc. The overexpression of each protein was confirmed by western blotting using tag antibodies (Fig. 5, A and B).
(§2) We conducted flow cytometry using these cells to confirm that BA8 can recognize sulfated CCR5 expressed on the cell surface (Fig. 5D).
To quantitatively evaluate the binding ability of BA8 to C2 and C12 cells, we plotted the median fluorescence intensity of antibody binding against BA8 concentration (Fig. 5E). An increase in the signal with increasing antibody concentration was confirmed, and the binding activity was quantitatively evaluated by fitting with a sigmoid function.
HEK293 cells stored in liquid nitrogen were initiated into the culture by thawing. […]

[3] = test system: endogenous CCR5 expressed on TZM-bl; test: Flow cytometry binding to TZM-bl cells; assay type: cell-based; conditions: BA8 full-length IgG, read-out: BC50 (the source's name)
Description: Cells were aliquoted into 96 Well Conical (V) Bottom Plates (ThermoFisher Scientific) at 50,000 cells per sample and fixed with 2% paraformaldehyde at 4 °C for 30 min. After a PBS wash, 50 μl of goat anti-rabbit IgG Alexa 488 (Invitrogen) diluted 1000-fold by PBS were added to the sample. After incubation at 4 °C for 30 min, PBS washed cells were diluted with PBS containing 2% fetal bovine serum, and flow cytometry was performed using a FACS Canto system (BD Biosciences).

[4] = test system: CCR5 on HEK293 cells transfected with CCR5 (C) or CCR5 + TPST1 (C1); test: Flow cytometry binding to C and C1 cells; assay type: cell-based; conditions: cells overexpressing only CCR5 or CCR5 and TPST1
Source text: as §1, §2
HEK293 cells stored in liquid nitrogen were initiated into the culture by thawing. After the third passage, at 70% confluency, they were transfected with pCAGGS expression vectors containing CCR5, TPST1, or TPST2 using Lipofectamine 3000 Transfection Reagent (ThermoFisher Scientific). To exclude artifacts caused by the transfection operation itself, empty vectors without the objective protein were transfected if the protein was not to be expressed. […]

[5] = test system: YU2 (CCR5 tropic strain) strain in TZM-bl cells; test: Pseudoviral assay (single-round viral infective assay) in TZM-bl cells; assay type: cell-based, HIV; conditions: 48 h post-infection, luciferase read-out, BA8 up to 50 μg/ml (approximately 350 nM)
Description: Subsequently, we conducted a pseudoviral test using TZM-bl cells.
The anti-HIV activity of BA8, isotype control antibody, and Maraviroc (Sigma-Aldrich) in a single-round viral infective assay against the YU2 (CCR5 tropic strain) strain in TZM-bl cells. At 48 h post-infection, cells were lysed, and relative light units were measured using a Steady-Glo luciferase assay system and GloMax Discover microplate reader (Promega).

[6] = test system: CCR5 sulfated by TPST2 in cell lysates; test: Western blotting of transfected HEK293 cell lysates with BA8 as detection antibody; assay type: binding; conditions: 100 nM BA8 (full-length IgG) as detection antibody; lysates of NC, C, C1, C2, C12 cells
Source text: as §1
We prepared recombinant BA8 as a full-length IgG form for subsequent cell-based assays (Fig. S2, C and D).
The cell lysate suspended in RIPA Buffer was placed on ice for 30 min, followed by centrifugation at 20,000 × g for 20 min. […] Protein bands were detected by incubating the membranes with anti-DDDDK-tag mAb-HRP-DirecT, anti-HA tag mAb-HRP-DirecT, anti-Myc tag mAb-HRP-DirecT (all from MBL Lifescience), or each IgG followed by incubation with horseradish peroxidase (HRP)-conjugated anti-rabbit IgG, HRP-linked antibody (Cell Signaling Technology) at room temperature for 30 min. […]

B1: BA8: rabbit antibody clone from phage display that specifically recognizes the sulfated N-terminal peptide of CCR5 (antibody, V domains shown)
VH: QSLEESGGGLFKPTDTLTLTCTVSGFSLSSYSIRWVRQAPGNGLEWIGAIGSGGNAYYTSWAKSRSTITRNTNENTVTLKMTSLTVADTATYFCARGGINFGIWGPGTLVTVSS
VL: AAVLTQTPSPVSAAVGSTVTINCQSSQSVYSKNWLSWFQQKPGQPPKQLIYSASTLDSGVPSRFSGSGSGTQFTLTISGVQCDDAATYYCQGTYGDASAFGGGTEVVVK
For B1, the ΔH [1] was -28.7 kcal/mol, the EC50 [2] was 3.71 nM and the EC50 [3] was 49 nM and ~50 nM. For the same molecule, the “binding to C and C1 cells in flow cytometry, in words” value [4] was “slight binding”, the “inhibition of HIV infection, in words” value [5] was “did not significantly inhibit the infection; also recorded: did not show inhibitory activity” and the “recognition of CCR5 in cell lysates by western blotting, in words” value [6] was “specifically recognized CCR5 in the lysates of cells C2 and C12”.
